Results reported in IntAct's records for PubMed 29426014.

B1: Ubiquitin-protein ligase (Homo sapiens), Q05086-1 (parent)
chain: MEKLHQCYWKSGEPQSDDIEASRMKRAAAKHLIERYYHQLTEGCGNEACTNEFCASCPTFLRMDNNAAAIKALELYKINAKLCDPHPSKKGASSAYLENSKGAPNNSCSEIKMNKKGARIDFKDVTYLTEEKVYEILELCREREDYSPLIRVIGRVFSSAEALVQSFRKVKQHTKEELKSLQAKDEDKDEDEKEKAACSAAAMEEDSEASSSRIGDSSQGDNNLQKLGPDDVSVDIDAIRRVYTRLLSNEKIETAFLNALVYLSPNVECDLTYHNVYSRDPNYLNLFIIVMENRNLHSPEYLEMALPLFCKAMSKLPLAAQGKLIRLWSKYNADQIRRMMETFQQLITYKVISNEFNSRNLVNDDDAIVAASKCLKMVYYANVVGGEVDTNHNEEDDEEPIPESSELTLQELLGEERRNKKGPRVDPLETELGVKTLDCRKPLIPFEEFINEPLNEVLEMDKDYTFFKVETENKFSFMTCPFILNAVTKNLGLYYDNRIRMYSERRITVLYSLVQGQQLNPYLRLKVRRDHIIDDALVRLEMIAMENPADLKKQLYVEFEGEQGVDEGGVSKEFFQLVVEEIFNPDIGMFTYDESTKLFWFNPSSFETEGQFTLIGIVLGLAIYNNCILDVHFPMVVYRKLMGKKGTFRDLGDSHPVLYQSLKDLLEYEGNVEDDMMITFQISQTDLFGNPMMYDLKENGDKIPITNENRKEFVNLYSDYILNKSVEKQFKAFRRGFHMVTNESPLKYLFRPEEIELLICGSRNLDFQALEETTEYDGGYTRDSVLIREFWEIVHSFTDEQKRLFLQFTTGTDRAPVGGLGKLKMIIAKNGPDTERLPTSHTCFNVLLLPEYSSKEKLKERLLKAITYAKGFGML
partner: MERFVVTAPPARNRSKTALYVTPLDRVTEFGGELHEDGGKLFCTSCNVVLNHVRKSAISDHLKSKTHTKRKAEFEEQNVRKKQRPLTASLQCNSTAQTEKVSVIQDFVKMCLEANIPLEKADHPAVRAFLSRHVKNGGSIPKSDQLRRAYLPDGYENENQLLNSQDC
B2: Ubiquitin-protein ligase (Homo sapiens), Q05086-2 (parent)
chain: MKRAAAKHLIERYYHQLTEGCGNEACTNEFCASCPTFLRMDNNAAAIKALELYKINAKLCDPHPSKKGASSAYLENSKGAPNNSCSEIKMNKKGARIDFKDVTYLTEEKVYEILELCREREDYSPLIRVIGRVFSSAEALVQSFRKVKQHTKEELKSLQAKDEDKDEDEKEKAACSAAAMEEDSEASSSRIGDSSQGDNNLQKLGPDDVSVDIDAIRRVYTRLLSNEKIETAFLNALVYLSPNVECDLTYHNVYSRDPNYLNLFIIVMENRNLHSPEYLEMALPLFCKAMSKLPLAAQGKLIRLWSKYNADQIRRMMETFQQLITYKVISNEFNSRNLVNDDDAIVAASKCLKMVYYANVVGGEVDTNHNEEDDEEPIPESSELTLQELLGEERRNKKGPRVDPLETELGVKTLDCRKPLIPFEEFINEPLNEVLEMDKDYTFFKVETENKFSFMTCPFILNAVTKNLGLYYDNRIRMYSERRITVLYSLVQGQQLNPYLRLKVRRDHIIDDALVRLEMIAMENPADLKKQLYVEFEGEQGVDEGGVSKEFFQLVVEEIFNPDIGMFTYDESTKLFWFNPSSFETEGQFTLIGIVLGLAIYNNCILDVHFPMVVYRKLMGKKGTFRDLGDSHPVLYQSLKDLLEYEGNVEDDMMITFQISQTDLFGNPMMYDLKENGDKIPITNENRKEFVNLYSDYILNKSVEKQFKAFRRGFHMVTNESPLKYLFRPEEIELLICGSRNLDFQALEETTEYDGGYTRDSVLIREFWEIVHSFTDEQKRLFLQFTTGTDRAPVGGLGKLKMIIAKNGPDTERLPTSHTCFNVLLLPEYSSKEKLKERLLKAITYAKGFGML
partner: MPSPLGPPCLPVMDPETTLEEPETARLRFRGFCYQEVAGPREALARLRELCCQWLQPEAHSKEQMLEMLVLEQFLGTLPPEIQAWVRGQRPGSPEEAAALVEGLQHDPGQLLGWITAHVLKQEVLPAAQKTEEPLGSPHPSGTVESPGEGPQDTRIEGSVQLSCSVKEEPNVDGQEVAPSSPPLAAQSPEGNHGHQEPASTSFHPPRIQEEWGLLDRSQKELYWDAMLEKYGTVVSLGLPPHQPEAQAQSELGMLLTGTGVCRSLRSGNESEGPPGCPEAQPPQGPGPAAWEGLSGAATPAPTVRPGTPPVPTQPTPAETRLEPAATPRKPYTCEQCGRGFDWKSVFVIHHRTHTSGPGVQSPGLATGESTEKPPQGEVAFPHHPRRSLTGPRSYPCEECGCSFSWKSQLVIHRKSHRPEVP
B3: Ubiquitin-protein ligase (Homo sapiens), Q05086-3 (parent)
chain: MATACKRSGEPQSDDIEASRMKRAAAKHLIERYYHQLTEGCGNEACTNEFCASCPTFLRMDNNAAAIKALELYKINAKLCDPHPSKKGASSAYLENSKGAPNNSCSEIKMNKKGARIDFKDVTYLTEEKVYEILELCREREDYSPLIRVIGRVFSSAEALVQSFRKVKQHTKEELKSLQAKDEDKDEDEKEKAACSAAAMEEDSEASSSRIGDSSQGDNNLQKLGPDDVSVDIDAIRRVYTRLLSNEKIETAFLNALVYLSPNVECDLTYHNVYSRDPNYLNLFIIVMENRNLHSPEYLEMALPLFCKAMSKLPLAAQGKLIRLWSKYNADQIRRMMETFQQLITYKVISNEFNSRNLVNDDDAIVAASKCLKMVYYANVVGGEVDTNHNEEDDEEPIPESSELTLQELLGEERRNKKGPRVDPLETELGVKTLDCRKPLIPFEEFINEPLNEVLEMDKDYTFFKVETENKFSFMTCPFILNAVTKNLGLYYDNRIRMYSERRITVLYSLVQGQQLNPYLRLKVRRDHIIDDALVRLEMIAMENPADLKKQLYVEFEGEQGVDEGGVSKEFFQLVVEEIFNPDIGMFTYDESTKLFWFNPSSFETEGQFTLIGIVLGLAIYNNCILDVHFPMVVYRKLMGKKGTFRDLGDSHPVLYQSLKDLLEYEGNVEDDMMITFQISQTDLFGNPMMYDLKENGDKIPITNENRKEFVNLYSDYILNKSVEKQFKAFRRGFHMVTNESPLKYLFRPEEIELLICGSRNLDFQALEETTEYDGGYTRDSVLIREFWEIVHSFTDEQKRLFLQFTTGTDRAPVGGLGKLKMIIAKNGPDTERLPTSHTCFNVLLLPEYSSKEKLKERLLKAITYAKGFGML
B4: Ubiquitin-protein ligase (Homo sapiens), Q05086-3 (parent)
chain: B3 chain
partner: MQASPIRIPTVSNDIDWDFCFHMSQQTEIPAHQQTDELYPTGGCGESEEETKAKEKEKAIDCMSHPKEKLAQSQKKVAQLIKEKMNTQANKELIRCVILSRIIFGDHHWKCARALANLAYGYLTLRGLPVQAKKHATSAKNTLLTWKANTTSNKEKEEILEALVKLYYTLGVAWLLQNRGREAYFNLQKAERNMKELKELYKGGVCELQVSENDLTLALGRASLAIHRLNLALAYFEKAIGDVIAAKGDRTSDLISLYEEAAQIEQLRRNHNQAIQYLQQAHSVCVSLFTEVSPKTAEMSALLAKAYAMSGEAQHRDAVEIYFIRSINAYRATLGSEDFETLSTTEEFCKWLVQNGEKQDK
B5: Ubiquitin-protein ligase (Homo sapiens), Q05086-2 (parent)
chain: B2 chain
partner: B4 partner
B6: Ubiquitin-protein ligase (Homo sapiens), Q05086-1 (parent)
chain: B1 chain
partner: B2 partner
B7: Ubiquitin-protein ligase (Homo sapiens), Q05086-2 (parent)
chain: B2 chain
partner: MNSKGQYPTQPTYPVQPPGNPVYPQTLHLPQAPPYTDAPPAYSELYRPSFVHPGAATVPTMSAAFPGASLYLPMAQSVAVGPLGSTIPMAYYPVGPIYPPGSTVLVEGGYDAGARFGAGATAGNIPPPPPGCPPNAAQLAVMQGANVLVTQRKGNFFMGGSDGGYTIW
B8: Ubiquitin-protein ligase (Homo sapiens), Q05086-3 (parent)
chain: B3 chain
partner: B2 partner
B9: Ubiquitin-protein ligase (Homo sapiens), Q05086-1 (parent)
chain: B1 chain
partner: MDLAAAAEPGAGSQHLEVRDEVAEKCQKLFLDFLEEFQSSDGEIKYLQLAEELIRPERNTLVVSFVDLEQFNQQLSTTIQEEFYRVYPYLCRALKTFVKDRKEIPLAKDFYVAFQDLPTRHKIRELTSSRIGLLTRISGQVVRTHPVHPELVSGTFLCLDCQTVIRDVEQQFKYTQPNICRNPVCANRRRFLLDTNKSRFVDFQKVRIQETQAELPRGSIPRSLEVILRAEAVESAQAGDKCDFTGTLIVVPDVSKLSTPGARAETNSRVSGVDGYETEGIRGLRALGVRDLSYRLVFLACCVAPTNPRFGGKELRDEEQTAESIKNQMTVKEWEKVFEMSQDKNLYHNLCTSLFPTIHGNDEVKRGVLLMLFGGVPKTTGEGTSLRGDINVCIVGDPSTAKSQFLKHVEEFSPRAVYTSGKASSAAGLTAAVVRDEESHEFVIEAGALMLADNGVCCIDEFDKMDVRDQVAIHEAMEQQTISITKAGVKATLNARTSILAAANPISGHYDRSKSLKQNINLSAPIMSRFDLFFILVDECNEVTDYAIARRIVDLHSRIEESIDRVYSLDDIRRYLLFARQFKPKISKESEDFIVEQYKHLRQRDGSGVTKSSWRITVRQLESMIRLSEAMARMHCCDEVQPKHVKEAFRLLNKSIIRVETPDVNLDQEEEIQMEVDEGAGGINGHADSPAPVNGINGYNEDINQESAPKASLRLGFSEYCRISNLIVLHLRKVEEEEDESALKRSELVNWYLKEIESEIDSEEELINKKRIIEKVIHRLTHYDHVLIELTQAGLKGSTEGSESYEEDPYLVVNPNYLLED
B10: Ubiquitin-protein ligase (Homo sapiens), Q05086-1 (parent)
chain: B1 chain
partner: B7 partner
B11: Ubiquitin-protein ligase (Homo sapiens), Q05086-2 (parent)
chain: B2 chain
partner: B1 partner
B12: Ubiquitin-protein ligase (Homo sapiens), Q05086-1 (parent)
chain: B1 chain
partner: B4 partner

Variants of: B1
Details: with cgbp1_human CGGBP1, Q9UFW8

Row | effect of a mutation on the interaction | Variant
1 | causing an interaction | C843A

Variants of: B2
Details: with ZNF446, Q9NWS9-2

Row | effect of a mutation on the interaction | Variant
2 | causing an interaction | C820A

Variants of: B3
Details: with ZNF250, P15622-3
Sequence of ZNF250, P15622-3 (P15622 other isoform, or with tags, fused parts or gaps): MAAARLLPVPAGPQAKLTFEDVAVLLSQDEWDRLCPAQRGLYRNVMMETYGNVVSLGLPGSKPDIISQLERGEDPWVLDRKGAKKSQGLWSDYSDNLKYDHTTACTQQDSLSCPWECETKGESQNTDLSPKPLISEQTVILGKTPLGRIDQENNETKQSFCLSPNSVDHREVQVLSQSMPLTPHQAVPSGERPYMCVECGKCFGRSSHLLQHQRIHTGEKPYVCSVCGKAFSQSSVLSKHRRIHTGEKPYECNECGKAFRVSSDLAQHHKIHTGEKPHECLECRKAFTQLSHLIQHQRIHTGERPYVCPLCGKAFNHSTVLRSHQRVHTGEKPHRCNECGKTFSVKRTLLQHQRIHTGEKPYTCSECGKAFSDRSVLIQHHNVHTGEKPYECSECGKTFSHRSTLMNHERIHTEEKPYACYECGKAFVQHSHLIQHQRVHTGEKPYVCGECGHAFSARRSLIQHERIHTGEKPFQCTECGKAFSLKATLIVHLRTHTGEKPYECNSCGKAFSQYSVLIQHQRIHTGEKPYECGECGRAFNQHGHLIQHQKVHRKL

Row | effect of a mutation on the interaction | Variant
3 | causing an interaction | C840A

Variants of: B3
Details: with PAX6, P26367-1
Sequence of PAX6, P26367-1 (P26367 whole entry): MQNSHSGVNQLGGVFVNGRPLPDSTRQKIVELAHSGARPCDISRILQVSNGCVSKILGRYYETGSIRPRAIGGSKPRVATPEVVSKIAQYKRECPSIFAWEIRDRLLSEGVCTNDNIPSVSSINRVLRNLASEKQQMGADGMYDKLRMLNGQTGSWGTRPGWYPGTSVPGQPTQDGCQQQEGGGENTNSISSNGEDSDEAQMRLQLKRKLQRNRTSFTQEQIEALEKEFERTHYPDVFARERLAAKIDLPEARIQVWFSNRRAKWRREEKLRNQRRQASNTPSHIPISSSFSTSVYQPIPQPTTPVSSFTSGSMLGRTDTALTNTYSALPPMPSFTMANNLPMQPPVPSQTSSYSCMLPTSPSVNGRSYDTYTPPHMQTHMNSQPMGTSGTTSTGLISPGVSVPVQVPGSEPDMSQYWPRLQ

Row | effect of a mutation on the interaction | Variant
4 | causing an interaction | C840A

Variants of: B3
Details: with magac_human MAGEA12, P43365
Sequence of magac_human MAGEA12, P43365 (P43365 whole entry): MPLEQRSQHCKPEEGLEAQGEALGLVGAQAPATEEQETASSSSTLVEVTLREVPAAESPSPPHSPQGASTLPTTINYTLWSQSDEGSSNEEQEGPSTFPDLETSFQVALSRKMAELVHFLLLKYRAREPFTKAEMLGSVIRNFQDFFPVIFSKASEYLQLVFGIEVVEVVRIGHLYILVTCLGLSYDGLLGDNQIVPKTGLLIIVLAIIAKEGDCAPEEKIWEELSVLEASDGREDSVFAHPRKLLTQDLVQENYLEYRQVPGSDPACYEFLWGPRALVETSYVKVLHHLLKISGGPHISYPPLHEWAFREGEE

Row | effect of a mutation on the interaction | Variant
5 | with no effect | C840A

Variants of: B3
Details: with PSMD4, P55036-1
Sequence of PSMD4, P55036-1 (P55036 whole entry): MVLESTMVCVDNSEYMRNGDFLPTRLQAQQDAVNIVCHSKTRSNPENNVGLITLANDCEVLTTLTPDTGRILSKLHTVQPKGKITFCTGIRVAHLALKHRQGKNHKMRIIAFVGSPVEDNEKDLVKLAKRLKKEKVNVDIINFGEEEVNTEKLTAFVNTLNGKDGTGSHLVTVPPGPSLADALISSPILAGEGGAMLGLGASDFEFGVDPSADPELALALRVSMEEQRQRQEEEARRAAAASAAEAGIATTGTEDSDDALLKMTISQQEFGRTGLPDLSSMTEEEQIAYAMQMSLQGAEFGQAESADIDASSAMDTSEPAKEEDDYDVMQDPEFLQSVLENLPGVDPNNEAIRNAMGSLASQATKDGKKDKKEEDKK

Row | effect of a mutation on the interaction | Variant
6 | with no effect | C840A

Variants of: B3
Details: with PAX5, Q02548-1
Sequence of PAX5, Q02548-1 (Q02548 whole entry): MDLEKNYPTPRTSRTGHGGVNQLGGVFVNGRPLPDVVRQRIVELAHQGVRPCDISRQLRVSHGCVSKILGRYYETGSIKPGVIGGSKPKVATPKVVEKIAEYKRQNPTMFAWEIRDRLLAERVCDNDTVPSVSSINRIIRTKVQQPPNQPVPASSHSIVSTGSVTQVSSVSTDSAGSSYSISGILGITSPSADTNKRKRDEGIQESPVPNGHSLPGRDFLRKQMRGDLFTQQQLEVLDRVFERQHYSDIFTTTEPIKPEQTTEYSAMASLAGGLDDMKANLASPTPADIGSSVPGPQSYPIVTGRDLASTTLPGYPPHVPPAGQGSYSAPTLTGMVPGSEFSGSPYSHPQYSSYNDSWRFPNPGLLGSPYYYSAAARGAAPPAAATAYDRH

Row | effect of a mutation on the interaction | Variant
7 | causing an interaction | C840A

Variants of: B3
Details: with PTCD3, Q96EY7-1

Row | effect of a mutation on the interaction | Variant
8 | with no effect | C840A

Variants of: B3
Details: with ubql2_human UBQLN2, Q9UHD9
Sequence of ubql2_human UBQLN2, Q9UHD9 (Q9UHD9 whole entry): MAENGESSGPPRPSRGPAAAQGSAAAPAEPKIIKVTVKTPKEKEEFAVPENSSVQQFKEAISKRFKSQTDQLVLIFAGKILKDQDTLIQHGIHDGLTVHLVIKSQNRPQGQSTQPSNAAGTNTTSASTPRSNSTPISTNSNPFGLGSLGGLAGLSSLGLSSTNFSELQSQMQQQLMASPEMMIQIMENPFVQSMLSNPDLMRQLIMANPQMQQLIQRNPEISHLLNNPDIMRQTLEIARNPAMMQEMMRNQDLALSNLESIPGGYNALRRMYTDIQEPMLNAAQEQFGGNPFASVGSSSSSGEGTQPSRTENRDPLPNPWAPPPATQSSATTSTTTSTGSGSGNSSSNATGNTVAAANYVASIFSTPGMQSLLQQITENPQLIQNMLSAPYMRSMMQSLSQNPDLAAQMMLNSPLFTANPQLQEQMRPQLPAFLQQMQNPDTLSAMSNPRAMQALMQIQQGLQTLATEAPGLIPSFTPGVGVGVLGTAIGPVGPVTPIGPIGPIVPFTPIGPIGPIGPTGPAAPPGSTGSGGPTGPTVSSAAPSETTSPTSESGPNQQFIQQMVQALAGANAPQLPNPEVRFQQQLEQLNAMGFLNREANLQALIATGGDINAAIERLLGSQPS

Row | effect of a mutation on the interaction | Variant
9 | with no effect | C840A

Variants of: B3
Details: with UBQLN1, Q9UMX0-1
Sequence of UBQLN1, Q9UMX0-1 (Q9UMX0 whole entry): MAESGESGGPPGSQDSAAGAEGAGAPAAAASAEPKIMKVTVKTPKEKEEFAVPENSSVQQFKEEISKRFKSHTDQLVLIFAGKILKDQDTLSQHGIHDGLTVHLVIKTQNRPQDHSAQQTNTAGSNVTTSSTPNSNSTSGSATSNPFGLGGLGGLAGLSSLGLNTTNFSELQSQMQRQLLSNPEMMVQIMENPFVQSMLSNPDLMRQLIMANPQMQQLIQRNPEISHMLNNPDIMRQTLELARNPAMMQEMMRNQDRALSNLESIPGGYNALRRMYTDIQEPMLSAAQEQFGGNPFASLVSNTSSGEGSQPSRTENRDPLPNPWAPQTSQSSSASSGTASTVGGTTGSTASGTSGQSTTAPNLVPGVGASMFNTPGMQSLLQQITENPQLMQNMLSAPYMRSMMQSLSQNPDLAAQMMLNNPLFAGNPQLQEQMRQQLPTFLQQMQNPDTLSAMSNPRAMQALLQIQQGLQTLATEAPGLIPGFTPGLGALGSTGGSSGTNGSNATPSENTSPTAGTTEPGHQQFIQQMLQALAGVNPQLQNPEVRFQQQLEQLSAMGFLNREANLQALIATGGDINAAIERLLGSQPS

Row | effect of a mutation on the interaction | Variant
10 | with no effect | C840A

Variants of: B4
Details: with TTC23L

Row | effect of a mutation on the interaction | Variant
11 | causing an interaction | C840A

Variants of: B5
Details: with TTC23L

Row | effect of a mutation on the interaction | Variant
12 | causing an interaction | C820A

Variants of: B6
Details: with ZNF446, Q9NWS9-2

Row | effect of a mutation on the interaction | Variant
13 | causing an interaction | C843A

Variants of: B7
Details: with DAZAP2, Q15038-1

Row | effect of a mutation on the interaction | Variant
14 | causing an interaction | C820A

Variants of: B8
Details: with ZNF446, Q9NWS9-2

Row | effect of a mutation on the interaction | Variant
15 | causing an interaction | C840A

Variants of: B9
Details: with mcm6_human MCM6, Q14566

Row | effect of a mutation on the interaction | Variant
16 | with no effect | C843A

Variants of: B10
Details: with DAZAP2, Q15038-1

Row | effect of a mutation on the interaction | Variant
17 | causing an interaction | C843A

Variants of: B11
Details: with cgbp1_human CGGBP1, Q9UFW8

Row | effect of a mutation on the interaction | Variant
18 | causing an interaction | C820A

Variants of: B12
Details: with TTC23L

Row | effect of a mutation on the interaction | Variant
19 | causing an interaction | C843A
